Patent publication CN108948193A (SHANGHAI JIANXIN BIOPHARMACEUTICALS LLC, dated 2018)
Residue numbers refer to the chain shown, from its start. “And” between values parts separate entries of the source, which are not always exact repeats. Equal entries are not always repeated. Each block holds one binder with its values, some of them ahead of it.

Experiments:
[1] = target: TIM3-hFc (human TIM-3 Fc fusion, 货号 TM3-H5258, 北京百普赛斯生物科技有限公司) (human) (UniProt Q8TDQ0); experiment: ELISA, hybridoma supernatant on TIM3-hFc captured by anti-hFc
[2] = target: T1, 人Tim-3 (antigen used as analyte in Biacore) (human, UniProt Q8TDQ0 22-200); experiment: SPR, Biacore T200, antibody captured by Protein A on CM5, TIM-3 as analyte, 1:1 Langmuir
T1 construct: Soluble antigen flowed at 0-30 nM over antibody captured by Protein A; also called 抗原TIM-3

[3] = target: human TIM-3 on human blood cells (PBMC / NK cells / activated T cells) (human, UniProt Q8TDQ0 22-301); experiment: cell-based or functional assay
[4] = target: T2, TIM3-hFc (human TIM-3 Fc fusion, 货号 TM3-H5258, 北京百普赛斯生物科技有限公司) (human, UniProt Q8TDQ0 22-200); experiment: ELISA on TIM3-hFc captured by anti-hFc
T2 construct: also called 人TIM-3; 人TIM-3抗原; not shown: human Fc (hFc) of the bought fusion

ELISA 数值(OD450) [1]: 1.73 OD450
B1: mab5 (mouse hybridoma clone 6F3, murine anti-human TIM-3 monoclonal antibody) (antibody, V domains shown)
VH: EVKLVESEGGLVQPGGSMKLSCTASGFTFSDYYMAWVRQVPEKGLEWVANINYDGSNTYYLDSLKSRFIISRDNVKNILYLQMSSLKSEDTATYYCARGLYYYGGNYFAYWGQGTLVTVSA
VL: DILMTQSPSSMSVSLGDTVTITCHASQGISSNIGWLQQKPGKSFKGLIYQGSNLEDGVPSRFSGSGSGADYSLTISSLEYEDFADYYCVQFAQFPPTFGAGTKLELK

Kd [2]: 1760 pM
koff [2]: 0.00244 s⁻¹
kon [2]: 1.39e+06 M⁻¹ s⁻¹
EC50 [4]: 107 pM and 60 pM
B2: mab5-c (chimeric anti-human TIM-3 antibody, human IgG4-κ) (antibody, V domains shown)
VH: B1 VH
VL: DILMTQSPSSMSVSLGDTVTITCHASQGISSNIGWLQQKPGKSFKGLIYQGSNLEDGVPSRFSGSGSGADYSLTISSLEYEDFADYYCVQFAQFPPTFGAGTKLELKR
notes: Mouse mab5 variable regions on human IgG4 / kappa constant regions; expressed in HEK293E; also called 嵌合抗体mab5-c
killing activity relative to the reference antibody ABTIM3 (fold) [3]: 2.8 倍 (fold)

EC50 [4]: 245 pM and 130 pM
B3: 对照抗体 ABTIM3 (reference anti-TIM-3 antibody, sequence from WO2015117002A1) (antibody, V domains shown)
VH: QVQLQQPGAELVKPGASVKMSCKASGYTFTSYNMHWIKQTPGQGLEWIGDIYPGNGDTSYNQKFKGKATLTADKSSSTVYMQLSSLTSEDSAVYYCARVGGAFPMDYWGQGTSVTVSS
VL: DIVLTQSPASLAVSLGQRATISCRASESVEYYGTSLMQWYQQKPGQPPKLLIYAASNVESGVPARFSGSGSGTDFSLNIHPVEEDDIAIYFCQQSRKDPSTFGGGTKLEIK

EC50 [4]: 131 pM
B4: 人源化ab8抗体 (humanized anti-TIM-3 antibody ab8) (antibody, IgG4, V domains shown)
VH: EVQLVESGGGLVKPGGSLRLSCAASGFTFSDYYMAWVRQAPGKGLEWVANINYDGSNTYYLDSLKSRFTISRDNAKNSLYLQMNSLRAEDTAVYYCARGLYYYGGNYFAYWGQGTLVTVSS
VL: DIQMTQSPSSLSASVGDRVTITCHASQGISSNIGWLQQKPGKAFKGLIYQGSNLEDGVPSRFSGSGSGTDYTLTISSLQPEDFATYYCVQFAQFPPTFGQGTKLEIKR
notes: Humanized mab5; human kappa / IgG4

EC50 [4]: 154 pM
B5: 人源化ab7抗体 (humanized anti-TIM-3 antibody ab7) (antibody, human IgG4 S228P, kappa, V domains shown)
VH: B4 VH
VL: B4 VL with Y71F
notes: as for B4

EC50 [4]: 159 pM
B6: 人源化ab6抗体 (humanized anti-TIM-3 antibody ab6) (antibody, human IgG4 S228P, kappa, V domains shown)
VH: B4 VH
VL: B4 VL with T69A
notes: as for B4
killing of tumour cells by PBMC/NK cells relative to the reference antibody (fold) [3]: ≥ 2 倍 (fold)
